Paper PMC4432651, “Dynamic interplay between catalytic and lectin domains of GalNAc-transferases modulates protein O-glycosylation” (Nature Communications, 2015)
Where no end group is shown, it is not given here.

B1: MUC5AC peptide (naked) (peptide)
peptide: GTTPSPVPTTSTTSA
notes: peptide named after mucin MUC5AC; Made on Rink amide resin, so the C-terminus is probably an amide (surmised); source: synthetic peptide (Fmoc solid-phase synthesis on Rink Amide MBHA resin, HPLC purified)
B2: polypeptide N-acetylgalactosaminyltransferase 2 (GalNAc-T2), K75-Q571 (enzyme)
chain: not shown
notes: GalNAc-T2, residues K75-Q571, catalytic domain, flexible linker and lectin domain; Monomers and dimers coexist in solution by SAXS; also called wild-type (WT) enzyme
B3: MUC5AC-3-13 diglycosylated peptide (peptide)
peptide: GTT(GalNAc)PSPVPTTSTT(GalNAc)SA
modifications: not fully specified (C-terminus)
notes: Made on Rink amide resin, so the C-terminus is probably an amide (surmised); source: synthetic peptide (Fmoc solid-phase synthesis on Rink Amide MBHA resin, HPLC purified)
B4: MUC5AC-13 glycopeptide (peptide)
peptide: GTTPSPVPTTSTT(GalNAc)SA
notes: as for B3

Legend:
[1] = biological target: T1, polypeptide N-acetylgalactosaminyltransferase 2 (GalNAc-T2), K75-Q571 (human, UniProt Q10471 75-571); assay: other fluorescence titration; tryptophan fluorescence quenching of GalNAc-T2 (1 µM) by peptides at 1-500 µM; 25 mM Tris, 150 mM NaCl, pH 7.5, 25 °C; no UDP/Mn2+; single binding site model; details: both partners purified
T1 construct: GalNAc-T2 (polypeptide N-acetylgalactosaminyltransferase 2), residues K75-Q571: catalytic domain, flexible linker and lectin domain; Theoretical MW 56.7 kDa (D1:p10); source: expression plasmid pPICZαAgalnact2 (K75-Q571)
T1 sequence (Q10471 75-571): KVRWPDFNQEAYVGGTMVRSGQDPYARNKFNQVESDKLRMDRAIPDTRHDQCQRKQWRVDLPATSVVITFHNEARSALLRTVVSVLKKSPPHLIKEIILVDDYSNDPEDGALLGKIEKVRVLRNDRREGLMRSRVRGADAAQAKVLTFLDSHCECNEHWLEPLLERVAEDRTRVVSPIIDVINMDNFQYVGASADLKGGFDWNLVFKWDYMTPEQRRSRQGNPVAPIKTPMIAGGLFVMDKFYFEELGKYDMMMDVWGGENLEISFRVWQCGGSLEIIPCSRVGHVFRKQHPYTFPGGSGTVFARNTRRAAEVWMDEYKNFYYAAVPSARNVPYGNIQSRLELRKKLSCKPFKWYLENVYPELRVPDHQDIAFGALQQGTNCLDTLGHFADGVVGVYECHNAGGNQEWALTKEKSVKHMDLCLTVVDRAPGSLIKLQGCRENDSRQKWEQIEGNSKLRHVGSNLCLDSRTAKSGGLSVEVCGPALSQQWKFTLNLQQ

[2] = biological target: T1, polypeptide …; assay: other fluorescence titration; tryptophan fluorescence quenching of GalNAc-T2 (1 µM) by peptides at 1-500 µM; 25 mM Tris, 150 mM NaCl, pH 7.5, 25 °C; with 400 µM UDP and 1 mM MnCl2; single binding site model; details: both partners purified
[3] = biological target: the molecule itself; assay: SAXS; solution scattering with ensemble analysis (EOM), monomer and dimer pools; enzyme without ligands (2.5, 5.0 and 10.0 mg/ml) or with UDP or UDP-GalNAc

Row | Binder | Kd [1] [µM] | Kd [2] [µM] | stoichiometry N [3]
1 | B1 | 7 ± 3 | 31 ± 16 | –
2 | B2 | – | – | 2
3 | B3 | 11 ± 4 | 17 ± 9 | –
4 | B4 | 8 ± 3 | 5 ± 1 | –
